Values of other authors as cited in patent publication US20200354411A1, “Chimeric Molecule for Targeting c-Myc in Cells” (priority 2017, published 2020).

Tested on: A549 cells
Settings: shown in the art

B1: Omomyc: myc dominant negative peptide able to bind E-Box promoter and prevent c-myc binding, SEQ ID NO: 6 (peptide)
chain: TEENVKRRTHNVLERQRRNELKRSFFALRDQIPELENNEKAPKVVILKKATAYILSVQAETQKLISEIDLLRKQNEQLKHKLEQLRNSCA
modifications: Omomyc
concentration at which treated cells showed apoptosis: 10 µM
